# Source: IntAct's records for PubMed 12642614
# B1: vacuole-related protein 17 (Saccharomyces cerevisiae), P25591 (parent)
# chain: MATQALEDITERLLIRSQEAILQLDLWIQRQQRSSICQTTDQESLDKLSQQYNQYMSQLNSLYVRSESVRDKLSKEQQRRLITEDNEHQRIEDLVREFQDITLRLNELATVPNEAPNDSPQSQSTRSSLGSFQPRPLKIIERQRLCMVTPSKPPKKSVGFNPINEVDCPSKTNSLPCSPKKQPARNRTLRAAKSHDTGLNKSKKPSSSDTYESFFKNRQRLSLTFFDEMDDEDFDSDQDTIILPNISTPPHVGVTAKGAEFEPLRRYNSHESILSNKPAPSKSLNLGSFSASFFRPSNPTFGTSISNVQVNCHPTVAATMAPSRNGPRISSSKALLSSFIARSDTHTVKENNTNLKHASFMDKFNSSLSTISESFQSKRGRKNKGMNEERISNHNVAQEQKNNMDISVSIEELQDALNTELLF
# B2: Myosin-2 (Saccharomyces cerevisiae), P19524 (parent)
# chain: MSFEVGTRCWYPHKELGWIGAEVIKNEFNDGKYHLELQLEDDEIVSVDTKDLNNDKDQSLPLLRNPPILEATEDLTSLSYLNEPAVLHAIKQRYSQLNIYTYSGIVLIATNPFDRVDQLYTQDMIQAYAGKRRGELEPHLFAIAEEAYRLMKNDKQNQTIVVSGESGAGKTVSAKYIMRYFASVEEENSATVQHQVEMSETEQKILATNPIMEAFGNAKTTRNDNSSRFGKYLEILFDKDTSIIGARIRTYLLERSRLVYQPPIERNYHIFYQLMAGLPAQTKEELHLTDASDYFYMNQGGDTKINGIDDAKEYKITVDALTLVGITKETQHQIFKILAALLHIGNIEIKKTRNDASLSADEPNLKLACELLGIDAYNFAKWVTKKQIITRSEKIVSNLNYSQALVAKDSVAKFIYSALFDWLVENINTVLCNPAVNDQISSFIGVLDIYGFEHFEKNSFEQFCINYANEKLQQEFNQHVFKLEQEEYVKEEIEWSFIEFNDNQPCIDLIENKLGILSLLDEESRLPAGSDESWTQKLYQTLDKSPTNKVFSKPRFGQTKFIVSHYALDVAYDVEGFIEKNRDTVSDGHLEVLKASTNETLINILEGLEKAAKKLEEAKKLELEQAGSKKPGPIRTVNRKPTLGSMFKQSLIELMNTINSTNVHYIRCIKPNADKEAWQFDNLMVLSQLRACGVLETIRISCAGFPSRWTFEEFVLRYYILIPHEQWDLIFKKKETTEEDIISVVKMILDATVKDKSKYQIGNTKIFFKAGMLAYLEKLRSNKMHNSIVMIQKKIRAKYYRKQYLQISQAIKYLQNNIKGFIIRQRVNDEMKVNCATLLQAAYRGHSIRANVFSVLRTITNLQKKIRKELKQRQLKQEHEYNAAVTIQSKVRTFEPRSRFLRTKKDTVVVQSLIRRRAAQRKLKQLKADAKSVNHLKEVSYKLENKVIELTQNLASKVKENKEMTERIKELQVQVEESAKLQETLENMKKEHLIDIDNQKSKDMELQKTIENNLQSTEQTLKDAQLELEDMVKQHDELKEESKKQLEELEQTKKTLVEYQTLNGDLQNEVKSLKEEIARLQTAMSLGTVTTSVLPQTPLKDVMGGGASNFNNMMLENSDLSPNDLNLKSRSTPSSGNNHIDSLSVDRENGVNATQINEELYRLLEDTEILNQEITEGLLKGFEVPDAGVAIQLSKRDVVYPARILIIVLSEMWRFGLTKQSESFLAQVLTTIQKVVTQLKGNDLIPSGVFWLANVRELYSFVVFALNSILTEETFKNGMTDEEYKEYVSLVTELKDDFEALSYNIYNIWLKKLQKQLQKKAINAVVISESLPGFSAGETSGFLNKIFANTEEYTMDDILTFFNSIYWCMKSFHIENEVFHAVVTTLLNYVDAICFNELIMKRNFLSWKRGLQLNYNVTRLEEWCKTHGLTDGTECLQHLIQTAKLLQVRKYTIEDIDILRGICYSLTPAQLQKLISQYQVADYESPIPQEILRYVADIVKKEAALSSSGNDSKGHEHSSSIFITPETGPFTDPFSLIKTRKFDQVEAYIPAWLSLPSTKRIVDLVAQQVVQDGH
# partner: B1 chain
# Variants of: B1
# Settings: with myo2_yeast MYO2, P19524
row,effect of a mutation on the interaction,Variant
1,with no effect,MATQALEDITERLLIRSQEAILQLDLWIQRQQRSSICQTTDQESLDKLSQQYNQYMSQLNSLYVRSESVRDKLSKEQQRRLITEDNEHQRIEDLVREFQDITLRLNELATVPNEAPNDSPQSQSTRSSLGSFQPRPLKIVERQRLCMVTPSKPPKKSVGFNPINEVDCPSKTNSLPCSPKKQPARNRTLRAAKSHDTGLNKSKKPSSSDTYESFFKNRQRLSLTFFDEMDDEDFDSDQDTIILPNISTPPHVGVTAKGAEFEPLRRYNSHESILSNKPAPSKSLNLGSFSASFFRPSNPTFGTSISNVQVNCHPTVAATMAPSRNGPRISSSKALLSSFIARSDTHTVKENNTNLKHASFMDKFNSSLSTISESFQSKRGRKNKGMNEERISNHNVAQEQKNNMDISVSIEELQDALNTELLF [I140V]

# Variants of: B2
# Settings: with vac17_yeast VAC17, P25591
row,Variant,effect of a mutation on the interaction
1,D1297N,disrupting interaction strength
2,G1248D,disrupting interaction strength

# Results, then the variant that gave them:
row,effect of a mutation on the interaction,Variant
1,disrupting interaction strength,N1304D
2,disrupting interaction strength,N1304S
3,disrupting interaction strength,L1301P

# Variants of: B2
# Settings: with vac17_yeast VAC17, P25591
# Remark: another data set of the same source
row,effect of a mutation on the interaction,Variant
1,decreasing interaction strength,G1248N

# Variants of: B2
# Settings: with vac17_yeast VAC17, P25591
# Remark: another data set of the same source
row,effect of a mutation on the interaction,Variant
1,decreasing interaction strength,G1248D
